The record followed here is patent publication US6942981.

Ends that are not written are not given here. * marks the point of attachment. Biotin = O=C1N[C@H]2[C@H](CS[C@H]2CCCCC(=O)*)N1

This assay deals with GST-DLG1 PDZ domains 1-2 fusion protein (human) (UniProt Q12959). As to the kind of experiment: G assay titration of biotinylated peptide on immobilized GST-PDZ, saturation fit (apparent affinity).

For Biotin-ISGTPTSTMVHGMTSSSSVV [CLASP-2 C-terminal peptide AA2L], the Kd is 21 µM. For Biotin-KDITSDSENSNFRNEIQSLV [CD95 (Apo-1/Fas) C-terminal peptide AA13L], the Kd was determined as 54 µM.
